T1: human recombinant S100A9 (human), P06702
T1 chain: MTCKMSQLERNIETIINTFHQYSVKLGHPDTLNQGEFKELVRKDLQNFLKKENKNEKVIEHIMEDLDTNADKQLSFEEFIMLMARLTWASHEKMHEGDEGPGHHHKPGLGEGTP

T2: human recombinant S100A9 (human, UniProt P06702 1-114)
T2 construct: S100A9, human, recombinant; Alone it runs as a homodimer by SEC; In the 1:1 mix with S100A8 it forms the calprotectin heterotetramer; also called S100A9 homodimers; source: human recombinant, generated by the authors, purity confirmed
T2 sequence (looked up): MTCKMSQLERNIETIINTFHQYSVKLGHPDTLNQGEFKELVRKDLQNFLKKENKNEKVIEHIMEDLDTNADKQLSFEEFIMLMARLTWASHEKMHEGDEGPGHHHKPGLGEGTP

B1: human recombinant S100A9, P06702 1-114 (natural protein)
chain: MTCKMSQLERNIETIINTFHQYSVKLGHPDTLNQGEFKELVRKDLQNFLKKENKNEKVIEHIMEDLDTNADKQLSFEEFIMLMARLTWASHEKMHEGDEGPGHHHKPGLGEGTP
B2: human recombinant S100A8 (natural protein, UniProt P05109 1-93, looked up)
chain: MLTELEKALNSIIDVYHKYSLIKGNFHAVYRDDLKKLLETECPQYIRKKGADVWFKELDINTDGAVNFQEFLILVIKMGVAAHKKSHEESHKE
notes: S100A8, human, recombinant; Alone it runs as a homodimer by SEC; In the 1:1 mix with S100A9 it forms the calprotectin heterotetramer; also called S100A8 homodimers; S100A8/S100A8 homodimers; source: human recombinant, generated by the authors, purity confirmed

Experiments:
Test in all cases: SEC; human recombinant S100A8, S100A9 or their 1:1 mix (CP) run as reference proteins; sizes read from the elution
[1] = molecular target: T1, human recombinant S100A9 (human), P06702
human recombinant S100A9 = molecular target: T2, human recombinant S100A9; conditions: both partners purified
[2] = molecular target: the molecule itself

Binder	stoichiometry N [1]	binding result (human recombinant S100A9)	stoichiometry N [2]
B1	2	–	–
B2	–	binds	2

— article PMC12964555, “Fecal Detection of Calprotectin Subunits Links Inflammatory Bowel Disease Activity With Chronicity of Intestinal Inflammation” (Gastroenterology, 2025)
